Test results: the RNAGym collection of RNA variant scans (doi:10.1073/pnas.2313332121)

B1: TPR t1 (parent)
chain: GACCAAUCUGCCCUCAGAGCUCGAGAACAUCUUCGGAUGCAGAGGAGGCAGGCUUCGGUGGCGCGAUAGCGCCAACGUCCUCAACCUCCAAUGCAUCCCACCACAUGAUGAUGCCUGAAGAGCCUUGGUUUUUUG

Variants of: B1
Assay: polymerase ribozyme fitness, log enrichment relative to wild type (log ratio); higher = more active; in vitro selection for triplet polymerase activity
In short: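 Only genotypes with ≥10 input reads and ≥1 read per output were kept after Illumina sequencing of input and output libraries. These libraries were PCR-built, transcribed mutants of each subunit of a heterodimeric triplet polymerase ribozyme, each put through one triplicate in vitro selection round with frozen incubation at −7 °C, gel excision of extended constructs, streptavidin-bead capture and RT-PCR. Fitness is a logarithmic ratio of genotype enrichment to wild-type enrichment, from inverse-variance-weighted replicate averages, with the logarithm in base 2.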

First: C12A G120A
Second: C12G G63C
The “polymerase ribozyme fitness (log ratio)” value of the first is higher: 0.0228 for the first, -1.09 for the second.

Compared with C12G G63A, C12U C13G is higher in “polymerase ribozyme fitness (log ratio)” value: -0.827 for the first, -0.258 for the second.

Going from C12U A16G C28U A46C G120C to C12U A84C C102A, the “polymerase ribozyme fitness (log ratio)” value falls from -1.6 to -1.99.

First: C12U C15U C49A C73G C101U U133G
Second: C12A G77U G110C U130C
The “polymerase ribozyme fitness (log ratio)” value of the first is higher: -1.62 for the first, -3.57 for the second.

Compared with C12G G44U U59G, C12G C28G is lower in “polymerase ribozyme fitness (log ratio)” value: -1.39 for the first, -1.82 for the second.

Compared with C12U A43G C72U C123A, C12G U78G C102U is lower in “polymerase ribozyme fitness (log ratio)” value: 0.368 for the first, -1.99 for the second.

Compared with C12G C15A A41G G110A, C12G G45U is higher in “polymerase ribozyme fitness (log ratio)” value: -4.25 for the first, -0.996 for the second.

First: C12G G128A
Second: C12U A41U A66U
The “polymerase ribozyme fitness (log ratio)” value of the first is higher: -1.65 for the first, -2.82 for the second.

Going from C12G C56G to C12G C22U G63A U87A, the “polymerase ribozyme fitness (log ratio)” value falls from -1.05 to -4.98.

Compared with C12A G61U C98U U125A, C12A U116A is lower in “polymerase ribozyme fitness (log ratio)” value: -1.77 for the first, -4.12 for the second.

C12G C22A and C12U A46U C53U C79A A83U U130A are within 0.2 log units of each other in “polymerase ribozyme fitness (log ratio)” value: -4.18 for the first, -4.07 for the second.

Compared with C12U A26U U32G A46C G48U A50G A74U C94G C114G, C12G C15A G39U A41G C49G is higher in “polymerase ribozyme fitness (log ratio)” value: -7.12 for the first, -4.44 for the second.

First: C12U A26U
Second: C12G C53U C64U U106C
The “polymerase ribozyme fitness (log ratio)” value of the first is lower: -2.07 for the first, -0.438 for the second.

Compared with C12G C64U C73U U131G, C12G A83C is lower in “polymerase ribozyme fitness (log ratio)” value: -0.0751 for the first, -1.43 for the second.

Going from C12G A18U G45U G63U C88A to C12G G47C, the “polymerase ribozyme fitness (log ratio)” value rises from -5.09 to -1.34.

Going from C12G A121C to C12A U21C C72G, the “polymerase ribozyme fitness (log ratio)” value falls from 1.5 to -0.431.

Going from C12G U21C A29U G61A C123U U131A to C12G A18G G44C G71C A84U, the “polymerase ribozyme fitness (log ratio)” value falls from -2.39 to -6.08.

First: C12G C98U
Second: C12U A121G
The “polymerase ribozyme fitness (log ratio)” value of the first is lower: -0.616 for the first, 1.82 for the second.

Compared with C12U A121U, C12U A41G G48A G57A C86U is lower in “polymerase ribozyme fitness (log ratio)” value: 2.4 for the first, -2.63 for the second.

Compared with C12G G44U G47C G58C U116A, C12U A18U C114A G128A U130A is higher in “polymerase ribozyme fitness (log ratio)” value: -5.59 for the first, -3 for the second.

C12U C20U A46U U54C C56A U87G A91U and C12U A29G A50U A91G are within 0.2 log units of each other in “polymerase ribozyme fitness (log ratio)” value: -3.03 for the first, -3.08 for the second.

C12G C72G C86A U92A G110U and C12G A18C C56U C80U U112G are within 0.2 log units of each other in “polymerase ribozyme fitness (log ratio)” value: -4.84 for the first, -4.94 for the second.

Compared with C12G C64U U133A, C12A U54A U92G U132C is lower in “polymerase ribozyme fitness (log ratio)” value: -0.644 for the first, -3.79 for the second.

First: C12G C20A A26U
Second: C12G U30C C70A
The “polymerase ribozyme fitness (log ratio)” value of the first is lower: -5.8 for the first, -4.46 for the second.

First: C12U C20U A43U C62U U96C U106A U129A
Second: C12U A84C G120U
The “polymerase ribozyme fitness (log ratio)” value of the first is lower: -6.14 for the first, 1.69 for the second.

Going from C12G C76A A95U C115U to C12G U87C, the “polymerase ribozyme fitness (log ratio)” value rises from -4.26 to 0.621.

Compared with C12G U130C, C12U A74G U87A is lower in “polymerase ribozyme fitness (log ratio)” value: 0.663 for the first, -0.554 for the second.

Compared with C12G C70A A75U U112A G113U G120C U133G, C12U C13U A74U C97A C123U C124A is lower in “polymerase ribozyme fitness (log ratio)” value: -2.57 for the first, -4.56 for the second.

First: C12G C62G C82A
Second: C12G U116A
The “polymerase ribozyme fitness (log ratio)” value of the first is higher: -1.16 for the first, -3.29 for the second.

First: C12G G17C U87G C97A C123G
Second: C12G A37U G61C
The “polymerase ribozyme fitness (log ratio)” value of the first is lower: -6.84 for the first, -1.78 for the second.

First: C12A U106A
Second: C12G A43U C70G C124G
The “polymerase ribozyme fitness (log ratio)” value of the first is higher: -0.467 for the first, -4.85 for the second.

Going from C12G G19U C72A to C12G G48C A91C, the “polymerase ribozyme fitness (log ratio)” value rises from -5.03 to -2.22.

Going from C12U C15A A43C C72U A108U C123G to C12G G23A G71C C123G U129A, the “polymerase ribozyme fitness (log ratio)” value falls from -6.32 to -7.78.

Going from C12U C15A to C12U C20G G63U U106C, the “polymerase ribozyme fitness (log ratio)” value falls from -0.528 to -6.59.

Compared with C12G G107U, C12G G117U is higher in “polymerase ribozyme fitness (log ratio)” value: -5.64 for the first, -1.22 for the second.

C12A G71U C89U C101U C123U G128C and C12G A43U G61A A84U are the same in “polymerase ribozyme fitness (log ratio)” value: -1.52 for the first, -1.52 for the second.

Going from C12U C20A G71A U87C to C12G C22A A41G G71U C124A, the “polymerase ribozyme fitness (log ratio)” value falls from -2.91 to -4.76.

Going from C12G U78C U125A to C12G A18G A74U U78G U87A, the “polymerase ribozyme fitness (log ratio)” value falls from -0.607 to -4.81.

First: C12U C20A G120A U132C
Second: C12G A16U C72U G93U U112A
The “polymerase ribozyme fitness (log ratio)” value of the first is higher: -1.48 for the first, -3.35 for the second.

C12U A37C A46U and C12G A46C are within 0.2 log units of each other in “polymerase ribozyme fitness (log ratio)” value: -1.38 for the first, -1.55 for the second.

Going from C12G C62G A75G U87C to C12G G52U C53G G60U, the “polymerase ribozyme fitness (log ratio)” value rises from -3.99 to -0.409.

In the case of C12G U30C, the “polymerase ribozyme fitness (log ratio)” value is reported as -2.82.
